Positions count from the first letter of the chain named.
B1: Construct #12: RAGE V-C1-C2-V1stem(M/A)-IgG2 lower hinge-(IgG4CH2-CH3) (Fc fusion)
chain: AQNITARIGEPLVLKCKGAPKKPPQRLEWKLNTGRTEAWKVLSPQGGGPWDSVARVLPNGSLFLPAVGIQDEGIFRCQAMNRNGKETKSNYRVRVYQIPGKPEIVDSASELTAGVPNKVGTCVSEGSYPAGTLSWHLDGKPLVPNEKGVSVKEQTRRHPETGLFTLQSELMVTPARGGDPRPTFSCSFSPGLPRHRALRTAPIQPRVWEPVPLEEVQLVVEPEGGAVAPGGTVTLTCEVPAQPSPQIHWMKDGVPLPLPPSPVLILPEIGPQDQGTYSCVATHSSHGPQESRAVSISIIEPGEEGPTAGEGFDKVREAEDSPQHAVECPPCAPPVAGGPSVFLFPPKPKDTLMISRTPEVTCVVVDVSQEDPEVQFNWYVDGVEVHNAKTKPREEQFNSTYRVVSVLTVLHQDWLNGKEYKCKVSNKGLPSSIEKTISKAKGQPREPQVYTLPPSQEEMTKNQVSLTCLVKGFYPSDIAVEWESNGQPENNYKTTPPVLDSDGSFFLYSRLTVDKSRWQEGNVFSCSVMHEALHNHYTQKSLSLSLGK
notes: also called esRAGE-Fc fusion
B2: Construct #16: RAGE V-C1-C2-V1stem(M/A)-IgG2 lower hinge-(IgG4CH2-CH3)-YTE (Fc fusion)
chain: B1 chain with M353Y, S355T, T357E
notes: also called #12 + YTE; esRAGE-Fc fusion

Assays:
Test in all cases: ELISA, ligand coated on plate, RAGE-Fc titrated, anti-IgG Fc-HRP detection; apparent Kd
[1] = molecular target: T1, S100A12 (UniProt P80511 1-92, limits assumed)
T1 sequence (looked up): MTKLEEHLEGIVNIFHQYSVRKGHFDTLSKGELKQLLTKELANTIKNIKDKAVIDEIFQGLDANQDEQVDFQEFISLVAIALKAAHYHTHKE
Method: (§1) Functional ELISA assays were performed to assess the ligand binding characteristics of RAGE-Fc fusion proteins. Apparent binding affinities of RAGE-Fc fusion proteins to the RAGE ligands CML-HSA, HMGB1, S100A9 and S100A12 were measured for the following fusion proteins: Construct #1 (SEQ ID NO: 5), Construct #9 (SEQ ID NO: 53), Construct #10 (SEQ ID NO: 12), Construct #12 (SEQ ID NO: 15), and Construct #16 (SEQ ID NO: 16). Previous experiments were carried out to determine fundamental functionality of an ELISA, optimal coating concentrations and volumes, a dynamic range for the RAGE-Fc constructs, as well as optimized antibody dilutions and TMB development times.
(§2) RAGE ligands CML-HSA, HMGB1, S100A9 and S100A12 were separately coated onto a coated plate (MaxiSorp™) at a concentration of 50 nanomolar (nM), 100 microliters (μL) per well. RAGE ligand CML-HSA was separately coated onto a coated plate (MaxiSorp™) at a concentration of 100 nanograms (ng), 100 μL per well. The plates were then incubated overnight at 4° C. to allow the protein to bind to the plate coating. Following the coating step, the plates were washed once with 150 μL of wash solution (2.67 mM potassium chloride, […], 136.9 mM sodium chloride, 8.10 mM sodium phosphate dibasic, 0.05% Tween-20). […] After the blocking step, two washes were performed with the wash solution. The RAGE-Fc fusion protein was then incubated on the wells in log10 dilution with each separate ligand for 120 minutes at 37° C. while shaking. After the RAGE-Fc binding step, three washes were performed with the wash solution. Binding of the RAGE-Fc fusion to […], HMGB1, S100A9, and S100A12 was detected with a horseradish peroxidase (HRP) conjugated antibody with antigen specificity to IgG Fc (Abcam, Cat. No. ab99759). 100 μL of antibody diluted 1:5000 in DBPS was added to the assay wells, followed by 60 minutes of incubation at 37° C. while shaking. The wells were then washed four times with the wash solution. 100 μL of TMB (ThermoFisher Scientific, Cat. No. 34029) was then added to each well.

[2] = molecular target: T2, HMGB1 (amphoterin) (UniProt P09429 1-215, limits assumed)
T2 sequence (looked up): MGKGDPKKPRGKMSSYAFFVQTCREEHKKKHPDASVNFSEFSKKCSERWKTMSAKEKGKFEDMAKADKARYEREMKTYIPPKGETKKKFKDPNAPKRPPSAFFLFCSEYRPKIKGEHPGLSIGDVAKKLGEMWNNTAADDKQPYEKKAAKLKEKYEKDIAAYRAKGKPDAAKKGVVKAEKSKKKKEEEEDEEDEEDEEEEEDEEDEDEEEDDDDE
Method: as §1, §2

[3] = molecular target: T3, S100A9 (UniProt P06702 1-114, limits assumed)
T3 sequence (looked up): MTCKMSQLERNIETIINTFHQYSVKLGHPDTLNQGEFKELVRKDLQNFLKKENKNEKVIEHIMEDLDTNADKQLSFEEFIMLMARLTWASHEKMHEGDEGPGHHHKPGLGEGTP
Method: as §1, §2

[4] = molecular target: T4, CML-HSA (carboxymethylated human serum albumin) (human, UniProt P02768 25-609, carboxymethylated (CML); modified sites not stated)
T4 construct: An advanced glycation end-product form of HSA, coated on the ELISA plate
Method: as §1, §2

T4 sequence (P02768 25-609 limits assumed): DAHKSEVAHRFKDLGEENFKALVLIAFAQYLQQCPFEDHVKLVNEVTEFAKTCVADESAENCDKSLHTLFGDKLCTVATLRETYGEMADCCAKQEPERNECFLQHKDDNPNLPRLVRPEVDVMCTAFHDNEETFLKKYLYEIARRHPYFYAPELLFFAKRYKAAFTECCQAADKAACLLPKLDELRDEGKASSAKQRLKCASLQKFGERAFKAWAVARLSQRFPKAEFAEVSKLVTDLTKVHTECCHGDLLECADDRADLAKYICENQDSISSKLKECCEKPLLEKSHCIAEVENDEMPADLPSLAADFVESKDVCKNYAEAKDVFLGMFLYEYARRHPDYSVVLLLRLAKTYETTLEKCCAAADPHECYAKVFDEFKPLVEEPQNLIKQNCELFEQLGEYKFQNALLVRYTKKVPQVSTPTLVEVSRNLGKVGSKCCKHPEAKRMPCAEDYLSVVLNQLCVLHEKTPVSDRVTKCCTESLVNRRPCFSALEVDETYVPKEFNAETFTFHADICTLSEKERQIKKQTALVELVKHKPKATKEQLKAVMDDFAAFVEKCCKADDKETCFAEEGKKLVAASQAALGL

| Binder | Kd [1] | Kd [2] | Kd [3] | Kd [4] |
| --- | --- | --- | --- | --- |
| B1 | 44 nM | 7 nM | 25 nM | 39 nM |
| B2 | 36 nM | 7 nM | 27 nM | 35 nM |

From patent US20210188940A1 (BIOAGE LABS, published 2021)
